We go through 25 molecules from US20150299296A1 (Chugai, published 2015).

Numbering of substitutions follows the chain as printed.

Holding throughout (test): SPR; IL6R-BF648/IL6R-L=100
(In general: SPR reads the build-up and loss of mass on a sensor chip optically.)

Assay [1] has as its target T1, human FcγRIa extracellular domain with C-terminal His tag (human, UniProt P12314 16-292).
T1 construct: Whole entry named; also called FcgRIa; FcgIa
As for the experimental part:
(§1) IL6R-L was utilized as the common antibody L chain for all of the antibodies, the antibodies were expressed and purified according to the method of Reference Example 1, and binding to each of the FcγRs (FcγRIa, FcγRIIa type H, FcγRIIa type R, FcγRIIb, and FcγRIIIa type V) was comprehensively evaluated by the method of Reference Example 2.
(§2) Relative binding activities were calculated for the results of analyzing interactions with the respective FcγRs according to the following method.

Assay [2] deals with T2, human FcγRIIb extracellular domain with C-terminal His tag (human, UniProt P31994 43-217).
T2 construct: extracellular domain; For crystals it was expressed with kifunensine and trimmed with Endo F1; also called FcgRIIb; FcγRIIb extracellular region
T2 sequence (looked up): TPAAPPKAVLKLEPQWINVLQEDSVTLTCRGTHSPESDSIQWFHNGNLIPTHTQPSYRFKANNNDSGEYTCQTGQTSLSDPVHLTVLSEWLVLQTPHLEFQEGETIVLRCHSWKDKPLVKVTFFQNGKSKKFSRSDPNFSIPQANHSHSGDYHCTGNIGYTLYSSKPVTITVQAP
The method, then:
as §1, §2

The target in assay [3] is T3, human FcγRIIIa type V extracellular domain with C-terminal His tag (human, UniProt P08637 17-208).
T3 construct: extracellular domain; also called FcgRIIIaV; FcγRIIIaV
T3 sequence (P08637 17-208 F176V): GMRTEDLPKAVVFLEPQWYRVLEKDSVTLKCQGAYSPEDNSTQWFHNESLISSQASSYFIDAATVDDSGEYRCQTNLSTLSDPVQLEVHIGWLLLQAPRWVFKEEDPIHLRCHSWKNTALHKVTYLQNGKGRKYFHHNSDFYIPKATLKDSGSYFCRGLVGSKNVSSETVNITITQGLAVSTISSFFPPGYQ
As for the experimental part: as §1, §2

Assay [4] deals with T4, human FcγRIIa type H extracellular domain with C-terminal His tag (human, UniProt P12318 34-217).
T4 construct: extracellular domain; also called FcgRIIaH; FcγRIIa H
T4 sequence (looked up): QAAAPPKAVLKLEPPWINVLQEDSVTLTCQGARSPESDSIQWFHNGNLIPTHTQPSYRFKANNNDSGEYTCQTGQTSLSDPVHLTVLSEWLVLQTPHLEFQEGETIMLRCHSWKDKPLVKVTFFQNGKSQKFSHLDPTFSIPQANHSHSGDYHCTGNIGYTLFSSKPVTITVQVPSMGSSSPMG
As for the experimental part:
as §1, §2

T1 sequence (P12314 16-292): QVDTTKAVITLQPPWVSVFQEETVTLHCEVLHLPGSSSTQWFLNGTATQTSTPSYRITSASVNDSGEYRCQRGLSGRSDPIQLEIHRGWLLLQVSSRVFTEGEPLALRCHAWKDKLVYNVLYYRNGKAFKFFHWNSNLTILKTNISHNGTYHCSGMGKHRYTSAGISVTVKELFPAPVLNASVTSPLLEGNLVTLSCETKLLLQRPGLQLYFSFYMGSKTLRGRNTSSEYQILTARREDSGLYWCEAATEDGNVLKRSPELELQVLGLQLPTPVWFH

B1: IL6R-BP087/IL6R-L (antibody, human IgG1, kappa, name in EU numbering)
heavy: QVQLQESGPGLVKPSETLSLTCAVSGHSISHDHAWSWVRQPPGEGLEWIGFISYSGITNYNPSLQGRVTISRDNSKNTLYLQMNSLRAEDTAVYYCARSLARTTAMDYWGEGTLVTVSSASTKGPSVFPLAPSSKSTSGGTAALGCLVKDYFPEPVTVSWNSGALTSGVHTFPAVLQSSGLYSLSSVVTVPSSSLGTQTYICNVNHKPSNTKVDKKVEPKSCDKTHTCPPCPAPEYLGGDSVFLFPPKPKDTLMISRTPEVTCVVVDVSHEDPEVKFNWYVDGVEVHNAKTKPREEQYNSTYRVVSVLTVLHQDWLNGKEYKCKVSNKALPKPIEKTISKAKGQPREPQVYTLPPSRDELTKNQVSLTCLVKGFYPSDIAVEWESNGQPENNYKTTPPVLDSDGSFFLYSKLTVDKSRWQQGNVFSCSVMHEALHNHYTQESLSLSP
light: not shown
Consider B1, for which the relative binding activity was 33 in assay [1], 137 in assay [2], 158 in assay [3] and 179 in assay [4].

B2: IL6R-BP187/IL6R-L (antibody, human IgG1, kappa, name in EU numbering)
heavy: B1 heavy with P273G, K328A
light: not shown
On to B2, for which the relative binding activity in assay [1] is 68; in assay [2], 157; in assay [3] it was 124; in assay [4] it was 205.

B3: IL6R-BP143/IL6R-L (antibody, human IgG1, kappa, name in EU numbering)
heavy: B1 heavy with K328A, K332A
light: not shown
In the case of B3, the relative binding activity in assay [1] was 86; in assay [2] it was 133; in assay [3] it was 114; in assay [4], 143.

B4: IL6R-BP189/IL6R-L (antibody, human IgG1, kappa, name in EU numbering)
heavy: B1 heavy with Y236L, G239D, H270D, P273G, K328A
light: not shown
Take B4: the relative binding activity in assay [1] was 56; in assay [2], 177; in assay [3] it was 141; in assay [4], 183.

B5: IL6R-BP180/IL6R-L (antibody, human IgG1, kappa, name in EU numbering)
heavy: B1 heavy with Y236L, G239D, P273G
light: not shown
Consider B5, for which the relative binding activity in assay [1] came out at 29; in assay [2], 179; in assay [3], 100; in assay [4], 203.

B6: IL6R-BP194/IL6R-L (antibody, human IgG1, kappa, name in EU numbering)
heavy: B1 heavy with E235D, G239D, H270D, P273G, K328A
light: not shown
In the case of B6, the relative binding activity in assay [1] came out at 69; in assay [2], 178; in assay [3], 249; in assay [4] it was 395.

B7: IL6R-BP186/IL6R-L (antibody, human IgG1, kappa, name in EU numbering)
heavy: B1 heavy with E235D, G239D, P273G, Y298D, K328A
light: not shown
For B7, the relative binding activity is 43 in assay [1], 175 in assay [2], 143 in assay [3] and 368 in assay [4].

B8: IL6R-BP177/IL6R-L (antibody, human IgG1, kappa, name in EU numbering)
heavy: B1 heavy with E235D, G239D, P273G, K328D
light: not shown
Take B8: the relative binding activity in assay [1] turned out to be 57; in assay [2], 177; in assay [3], 186; in assay [4], 409.

B9: IL6R-BP192/IL6R-L (antibody, human IgG1, kappa, name in EU numbering)
heavy: B1 heavy with E235D, Y236L, H270D, P273G, Y298D
light: not shown
In the case of B9, the relative binding activity in assay [1] turned out to be 109; in assay [2], 172; in assay [3], 118; in assay [4], 122.

B10: IL6R-BP144/IL6R-L (antibody, human IgG1, kappa, name in EU numbering)
heavy: B1 heavy with Y236L, G239D, K328A, K332A
light: not shown
For the molecule B10, the relative binding activity in assay [1] was determined as 64; in assay [2], 121; in assay [3], 128; in assay [4], 108.

B11: IL6R-BP198/IL6R-L (antibody, human IgG1, kappa, name in EU numbering)
heavy: B1 heavy with E235D, H270D, P273G, K328A
light: not shown
For the molecule B11, the relative binding activity in assay [1] came to 104; in assay [2] it was 164; in assay [3] it was 157; in assay [4] it was 188.

B12: IL6R-BP145/IL6R-L (antibody, human IgG1, kappa, name in EU numbering)
heavy: B1 heavy with G239D, K332A
light: not shown
Take B12: the relative binding activity turned out to be 41 in assay [1], 152 in assay [2], 153 in assay [3] and 224 in assay [4].

B13: IL6R-BP147/IL6R-L (antibody, human IgG1, kappa, name in EU numbering)
heavy: B1 heavy with G239D, K328A
light: not shown
As for B13, the relative binding activity in assay [1] came out at 24; in assay [2], 177; in assay [3] it was 209; in assay [4], 582.

B14: IL6R-BP129/IL6R-L (antibody, human IgG1, kappa, name in EU numbering)
heavy: B1 heavy with E235D, Y236L, Y298D
light: not shown
Take B14: the relative binding activity in assay [1] stood at 68; in assay [2] it was 138; in assay [3], 95; in assay [4], 98.

B15: IL6R-BP148/IL6R-L (antibody, human IgG1, kappa, name in EU numbering)
heavy: B1 heavy with E235D, G239D, K328A
light: not shown
Consider B15, for which the relative binding activity was 33 in assay [1], 176 in assay [2], 227 in assay [3] and 462 in assay [4].

B16: IL6R-BP088/IL6R-L (antibody, human IgG1, kappa, name in EU numbering)
heavy: B1 heavy with Y236L, G239D, K328A
light: not shown
Take B16: the relative binding activity was found to be 25 in assay [1], 161 in assay [2], 122 in assay [3] and 166 in assay [4].

B17: IL6R-BP183/IL6R-L (antibody, human IgG1, kappa, name in EU numbering)
heavy: B1 heavy with E235D, P273G, K328A
light: not shown
For the molecule B17, the relative binding activity in assay [1] amounted to 83; in assay [2] it was 164; in assay [3], 113; in assay [4], 191.

B18: IL6R-BP150/IL6R-L (antibody, human IgG1, kappa, name in EU numbering)
heavy: B1 heavy with G239D, K328A, K332R
light: not shown
As for B18, the relative binding activity in assay [1] came to 30; in assay [2] it was 183; in assay [3] it was 204; in assay [4] it was 770.

B19: IL6R-BP179/IL6R-L (antibody, human IgG1, kappa, name in EU numbering)
heavy: B1 heavy with Y236L, G239D, P273G, K328A
light: not shown
Take B19: the relative binding activity in assay [1] is 39; in assay [2], 177; in assay [3], 125; in assay [4], 226.

B20: IL6R-BP185/IL6R-L (antibody, human IgG1, kappa, name in EU numbering)
heavy: B1 heavy with E235D, G239D, P273G, K328A
light: not shown
In the case of B20, the relative binding activity in assay [1] was found to be 47; in assay [2], 179; in assay [3], 191; in assay [4] it was 446.

B21: IL6R-BP196/IL6R-L (antibody, human IgG1, kappa, name in EU numbering)
heavy: B1 heavy with H270D, P273G, K328A
light: not shown
With B21, the relative binding activity turned out to be 89 in assay [1], 157 in assay [2], 137 in assay [3] and 195 in assay [4].

B22: IL6R-BP089/IL6R-L (antibody, human IgG1, kappa, name in EU numbering)
heavy: B1 heavy with K328A
light: not shown
Take B22: the relative binding activity in assay [1] is 43; in assay [2], 147; in assay [3], 136; in assay [4], 186.

B23: IL6R-BP184/IL6R-L (antibody, human IgG1, kappa, name in EU numbering)
heavy: B1 heavy with E235D, Y236L, P273G
light: not shown
With B23, the relative binding activity in assay [1] turned out to be 96; in assay [2] it was 171; in assay [3], 106; in assay [4], 131.

B24: IL6R-BP133/IL6R-L (antibody, human IgG1, kappa, name in EU numbering)
heavy: B1 heavy with E235D
light: not shown
For B24, the relative binding activity in assay [1] is 41; in assay [2], 137; in assay [3], 114; in assay [4] it was 151.

B25: IL6R-BP149/IL6R-L (antibody, human IgG1, kappa, name in EU numbering)
heavy: B1 heavy with E235D, G239D, Y298D, K328A
light: not shown
notes: Same printed alterations as IL6R-BP214
B25: the relative binding activity in assay [1] worked out at 29; in assay [2], 173; in assay [3] it was 186; in assay [4] it was 401.
